Results published in patent US20130143793A1 (ZEALAND PHARMA A S, published 2013).
Read-outs that look alike come from different tables or passages of the source. Square brackets hold non-standard residues; d marks the D form. Ends that are not written are not given here.

How the values were obtained:
Test in all cases: cell-based or functional assay
mouse CCK-B receptor [1] = molecular target: T1, mouse CCK-B receptor (mouse, UniProt P56481 1-453)
T1 sequence (looked up): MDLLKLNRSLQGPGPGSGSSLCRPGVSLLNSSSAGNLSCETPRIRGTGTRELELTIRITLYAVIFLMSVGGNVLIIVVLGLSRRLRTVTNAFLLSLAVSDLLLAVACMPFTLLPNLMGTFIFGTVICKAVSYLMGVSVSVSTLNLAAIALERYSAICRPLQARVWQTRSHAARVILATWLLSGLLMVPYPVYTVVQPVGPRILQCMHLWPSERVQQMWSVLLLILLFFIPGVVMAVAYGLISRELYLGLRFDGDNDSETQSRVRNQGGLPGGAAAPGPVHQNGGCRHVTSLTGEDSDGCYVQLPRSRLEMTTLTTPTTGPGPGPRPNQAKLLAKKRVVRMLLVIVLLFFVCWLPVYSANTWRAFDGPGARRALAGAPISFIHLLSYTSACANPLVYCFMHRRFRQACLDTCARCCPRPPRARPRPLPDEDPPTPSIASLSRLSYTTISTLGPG

human CCK-B receptor [2] = molecular target: T2, human CCK-B receptor (human, UniProt P32239 1-447)
T2 sequence (looked up): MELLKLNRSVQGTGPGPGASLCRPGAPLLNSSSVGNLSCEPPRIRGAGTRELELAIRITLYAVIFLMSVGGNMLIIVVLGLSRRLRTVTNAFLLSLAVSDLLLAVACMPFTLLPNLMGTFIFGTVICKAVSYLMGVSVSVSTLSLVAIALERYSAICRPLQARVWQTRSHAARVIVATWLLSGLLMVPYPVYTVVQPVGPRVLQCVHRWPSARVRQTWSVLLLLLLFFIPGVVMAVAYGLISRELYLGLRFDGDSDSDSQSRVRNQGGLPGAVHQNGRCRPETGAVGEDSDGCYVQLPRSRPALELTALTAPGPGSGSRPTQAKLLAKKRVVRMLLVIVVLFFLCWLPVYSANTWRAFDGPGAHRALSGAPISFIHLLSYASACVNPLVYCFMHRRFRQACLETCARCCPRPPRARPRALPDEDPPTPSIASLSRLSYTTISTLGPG

mouse CCK-B receptor [3] = molecular target: T1, mouse CCK-B receptor; remark: listed apart in the source
human CCK-B receptor [4] = molecular target: T2, human CCK-B receptor; remark: listed apart in the source
human GLP-1 receptor [5] = molecular target: T3, human GLP-1 receptor (human, UniProt P43220 24-463)
Target sequence in this assay (P43220 24-463): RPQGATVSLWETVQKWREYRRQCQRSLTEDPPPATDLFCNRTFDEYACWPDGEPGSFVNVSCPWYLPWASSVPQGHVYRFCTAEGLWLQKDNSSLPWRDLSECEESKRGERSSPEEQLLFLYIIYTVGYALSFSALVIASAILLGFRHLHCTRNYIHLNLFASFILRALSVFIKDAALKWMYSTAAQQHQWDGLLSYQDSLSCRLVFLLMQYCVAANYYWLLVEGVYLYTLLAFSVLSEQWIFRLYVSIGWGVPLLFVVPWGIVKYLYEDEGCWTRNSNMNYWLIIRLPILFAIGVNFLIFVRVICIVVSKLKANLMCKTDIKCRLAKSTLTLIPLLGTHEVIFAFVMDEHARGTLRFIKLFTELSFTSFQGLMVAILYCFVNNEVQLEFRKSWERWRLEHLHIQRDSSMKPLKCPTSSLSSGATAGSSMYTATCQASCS

human GLP-1 receptor [6] = molecular target: T3, human GLP-1 receptor; remark: listed apart in the source
Target sequence in this assay (P43220 24-463): as above

human CCK-B receptor [7] = molecular target: T2, human CCK-B receptor; remark: listed apart in the source
human GLP-1 receptor [8] = molecular target: T3, human GLP-1 receptor; remark: listed apart in the source

| Molecule | mCCK-B R EC50 (p-ERK) (mouse CCK-B receptor [1]) | hCCK-B R EC50 (p-ERK) (human CCK-B receptor [2]) | mCCK-B R EC50 (p-ERK) (mouse CCK-B receptor [3]) | hCCK-B R EC50 (p-ERK) (human CCK-B receptor [4]) | hGLP-1 R EC50 (cAMP) (human GLP-1 receptor [5]) | hGLP-1 R EC50 (cAMP) (human GLP-1 receptor [6]) | hCCK-B R EC50 (p-ERK) (human CCK-B receptor [7]) | hGLP-1 R EC50 (cAMP) (human GLP-1 receptor [8]) |
| --- | --- | --- | --- | --- | --- | --- | --- | --- |
| GLP-1(7-36)-8Aoc-8Aoc-[Gln1,Leu15]Gastrin17 (peptide) | 71 nM | 13 nM | 71.4 nM | 12.8 nM |  |  |  |  |
| GLP-1(7-36)-[Gln1,Leu15]Gastrin17 (peptide) | 73 nM | 26 nM | 73.1 nM | 25.9 nM | 0.03 nM | 0.145 nM |  |  |
| GLP-1(7-36)-SKK-[Gln1,Leu15]Gastrin17 (peptide) | 59 nM | 16 nM | 58.6 nM | 15.6 nM | 0.031 nM | 0.116 nM |  |  |
| h[Gln1,Leu15]Gastrin17 (peptide) | 18 nM |  | 18.2 nM |  |  |  |  |  |
| GLP-1(7-36)-Peg3-SKK-[Gln1,Leu15]Gastrin17 (peptide) | 51 nM | 8.8 nM | 51.1 nM | 8.76 nM |  |  |  |  |
| [Lys(Hexadecanoyl-isoGlu)26]GLP-1(7-37)-Peg3-Peg3-[Leu4]Gastrin6 (peptide) |  | 26 nM |  |  |  |  |  |  |
| GLP-1(7-36)-DBF-SKK-[Gln1,Leu15]Gastrin17 (peptide) | 87 nM | 26 nM | 86.9 nM | 25.7 nM |  |  |  |  |
| [Arg26,34,Lys(Hexadecanoyl-isoGlu)36]GLP-1(7-37)-Peg3-Peg3-[Leu4]Gastrin6 (peptide) |  | 78 nM |  |  | 0.11 nM |  |  |  |
| [Aib8,Arg34]GLP-1(7-37)-Peg3-Peg3-[Leu4]Gastrin6 (peptide) |  | 42 nM |  |  | 0.043 nM |  |  |  |
| GLP-1(7-36)-K-[Gln1,Leu15]Gastrin17 (peptide) | 110 nM | 77 nM | 114 nM | 77.3 nM | 0.03 nM | 0.0842 nM |  |  |
| GLP-1(7-36)-Peg3-Peg3-[Gln1,Leu15]Gastrin17 (peptide) | 58 nM | 8.2 nM | 58.3 nM |  |  |  |  |  |
| [Arg34]GLP-1(7-37)-Peg3-Peg3-[Leu4]Gastrin6 (peptide) |  | 24 nM |  |  |  |  |  |  |
| [Arg26,34,Gly8,Lys(Hexadecanoyl-isoGlu)36]GLP-1(7-37)-Peg3-Peg3-[Leu4]Gastrin6 (peptide) |  | 29 nM |  |  | 0.12 nM |  |  |  |
| [Aib8,Arg34,Lys(Hexadecanoyl-isoGlu)26]GLP-1(7-37)-Peg3-Peg3-[Leu4]Gastrin6 (peptide) |  | 59 nM |  |  | 0.088 nM |  |  |  |
| [Lys(Hexadecanoyl-isoGlu)34]GLP-1(7-37)-Peg3-Peg3-[Leu4]Gastrin6 (peptide) |  | 18 nM |  |  |  |  |  |  |
| GLP-1(7-36)-AAA-[Gln1,Leu15]Gastrin17 (peptide) | 54 nM | 19 nM | 54.1 nM | 18.8 nM | 0.034 nM | 0.114 nM |  |  |
| GLP-1(7-36)-8Aoc-SKK-[Gln1,Leu15]Gastrin17 (peptide) | 83 nM | 52 nM | 82.5 nM | 51.9 nM |  |  |  |  |
| CCK-8 (from UniProt P06307 96-103) (peptide) | 160 nM |  | 163 nM |  |  |  |  |  |
| [Arg34,Lys(Hexadecanoyl-isoGlu)26]GLP-1(7-37)-Peg3-Peg3-[Leu4]Gastrin6 (peptide) |  | 29 nM |  |  |  |  |  |  |
| h[Leu15]Gastrin17 (from UniProt P01350 76-92) (peptide) |  | 2.4 nM |  |  |  |  |  |  |
| HGEGTFTSDLSKQMEKEAVRLFIEWLKN[Peg3][Peg3]YGWLDF-NH2 [[Lys16]Exendin-4(1-28)-Peg3-Peg3-[Leu4]Gastrin6] |  |  |  |  |  |  | 15 nM | 0.032 nM |
